From publication PMC10373554 (Journal of Virology, 2023)

Molecular target: recombinant RBD protein of SARS-CoV (SARS-CoV (2003), strain of the bought …, UniProt P59594)
Assay: SPR

B1: S2H97 (antibody, V domains shown)
VH: QVRLVQSGAEVKKSGESLKISCKGSGYSFTSYWIGWVRQMPGKGLEWMGIIYPGDSDTRYSPSFQGQVTISADKSISTVYLQWSSLKASDTAMYYCARQWSHYTYDYYYWGQGTLVTISS
VL: QSVLTQPASVSGSPGQSITISCTGISSDVGGYNSVSWYQQHPGKAPKLMIYDVTNRPSGVSNRFSGSKSGNTASLTISGLQAEDEADYYCSSYTSSSTPPYVFGTGTKVSVL
binding result: binds
